Experimental findings from paper PMC8838988 are described below.

This assay deals with PiCDPK1, full-length 6X N-terminal His-fusion protein (Petunia inflata).
Sequence of PiCDPK1, full-length 6X N-terminal His-fusion protein (Petunia inflata) (main, as listed by the source): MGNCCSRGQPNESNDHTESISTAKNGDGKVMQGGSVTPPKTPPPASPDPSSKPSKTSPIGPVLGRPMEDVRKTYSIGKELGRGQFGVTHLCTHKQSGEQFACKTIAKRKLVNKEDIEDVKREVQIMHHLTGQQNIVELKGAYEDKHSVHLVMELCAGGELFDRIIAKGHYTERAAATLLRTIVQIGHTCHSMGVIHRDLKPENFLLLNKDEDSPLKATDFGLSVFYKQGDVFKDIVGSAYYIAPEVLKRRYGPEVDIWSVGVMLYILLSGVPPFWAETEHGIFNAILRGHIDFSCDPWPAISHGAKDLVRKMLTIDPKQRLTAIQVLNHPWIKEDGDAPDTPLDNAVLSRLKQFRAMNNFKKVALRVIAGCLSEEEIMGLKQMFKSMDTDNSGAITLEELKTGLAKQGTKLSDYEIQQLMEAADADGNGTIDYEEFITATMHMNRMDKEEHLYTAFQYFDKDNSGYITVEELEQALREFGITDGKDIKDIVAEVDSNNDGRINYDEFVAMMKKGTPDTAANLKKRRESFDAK

Consider “PiRhoGDI1, full-length 6X N-terminal His-fusion protein (natural protein)”, for which the Km of the phosphorylation of PiRhoGDI1 by PiCDPK1 (Michaelis-Menten conditions) is 2.2 µM and the Vmax of the phosphorylation of PiRhoGDI1 by PiCDPK1 (Michaelis-Menten conditions) is 1920 pmol/min/mg.
